Test results from patent US20250382602.
Substitutions are numbered along the chain they refer to.

How the values were obtained:
Conditions in all cases: nanopore translocation; background mutations not given
[1] = biological target: T1, Dda 1993 C114S C114S (Enterobacteria phage T4) (UniProt P32270)
T1 sequence: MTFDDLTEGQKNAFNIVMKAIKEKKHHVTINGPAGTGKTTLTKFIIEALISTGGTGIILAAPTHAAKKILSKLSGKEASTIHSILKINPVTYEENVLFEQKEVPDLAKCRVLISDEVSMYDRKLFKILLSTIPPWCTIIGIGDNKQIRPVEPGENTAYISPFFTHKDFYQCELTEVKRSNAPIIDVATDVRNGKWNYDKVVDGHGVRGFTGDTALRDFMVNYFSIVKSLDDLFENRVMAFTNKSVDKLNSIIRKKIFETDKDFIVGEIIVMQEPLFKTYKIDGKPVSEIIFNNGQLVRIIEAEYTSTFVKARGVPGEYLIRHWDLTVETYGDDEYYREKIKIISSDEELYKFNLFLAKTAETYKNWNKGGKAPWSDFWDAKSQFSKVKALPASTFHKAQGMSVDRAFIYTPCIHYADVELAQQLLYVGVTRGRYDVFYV

[2] = biological target: T2, Dda 1993 C114M C114M (Enterobacteria phage T4) (UniProt P32270)
T2 sequence: T1 sequence with S114M

[3] = biological target: T3, Dda 1993 C114G C114G (Enterobacteria phage T4) (UniProt P32270)
T3 sequence: T1 sequence with S114G

[4] = biological target: T4, Dda 1993 C114L C114L (Enterobacteria phage T4) (UniProt P32270)
T4 sequence: T1 sequence with S114L

[5] = biological target: T5, Dda 1993 C114I C114I (Enterobacteria phage T4) (UniProt P32270)
T5 sequence: T1 sequence with S114I

## barcoded 3.6 kb DNA analyte ligated to sequencing Y adaptor
[1]
  activity (bps speed delta vs control): -7.28
[2]
  activity (bps speed delta vs control): 81.8
[3]
  activity (bps speed delta vs control): -11.3
[4]
  activity (bps speed delta vs control): -42
[5]
  activity (bps speed delta vs control): 93.7
